Laboratory results published in patent publication US20190092856A1.

Target: human OSM (recombinant, mammalian-cell derived, OSMN1-1) (human) (UniProt P13725)
Assay: cell-based or functional assay

human OSM (recombinant, mammalian-cell derived, OSMN1-1) (human), sequence (P13725 26-221 limits assumed): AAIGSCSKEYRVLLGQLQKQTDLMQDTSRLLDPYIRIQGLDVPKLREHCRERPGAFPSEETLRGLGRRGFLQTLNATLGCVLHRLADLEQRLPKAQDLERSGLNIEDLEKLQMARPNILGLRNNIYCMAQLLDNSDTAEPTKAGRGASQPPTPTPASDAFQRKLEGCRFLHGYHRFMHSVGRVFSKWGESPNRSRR

pSTAT3 inhibition EC50 (A375 cells, 5 ng/ml hOSM): 72.1 ng/ml
Substance: MAB295 (R&D Systems) (antibody)
